Measured values reported in publication PMC6374351, “The Fusion Activity of IM30 Rings Involves Controlled Unmasking of the Fusogenic Core” (Frontiers in Plant Science, 2019).

Experiments:
Assay in all cases: SEC; Superdex 200 HR 16/60 GL, 4°C, 0.5 mL/min, 20 mM HEPES pH 7.6; apparent masses from Kav against marker proteins; apparent oligomeric state = extrapolated mass / calculated monomer mass (with His-tag)
[1] = target: IM30 α1-3 (helices 1-3) (Synechocystis sp. PCC 6803)
[2] = target: IM30 α1-4 (helices 1-4) (Synechocystis sp. PCC 6803)
[3] = target: the molecule itself

“IM30 α1-3 (helices 1-3) (domain or fragment)” gave a stoichiometry N [1] of 1.76.

In the case of “IM30 α1-4 (helices 1-4) (domain or fragment)”, the stoichiometry N [2] is reported as 2.2.

B1: inner membrane-associated protein of 30 kDa (IM30) wt, Synechocystis sp. PCC 6803 (natural protein, UniProt Q55707 1-267, looked up)
chain: MGLFDRLGRVVRANLNDLVSKAEDPEKVLEQAVIDMQEDLVQLRQAVARTIAEEKRTEQRLNQDTQEAKKWEDRAKLALTNGEENLAREALARKKSLTDTAAAYQTQLAQQRTMSENLRRNLAALEAKISEAKTKKNMLQARAKAAKANAELQQTLGGLGTSSATSAFERMENKVLDMEATSQAAGELAGFGIENQFAQLEASSGVEDELAALKASMAGGALPGTSAATPQLEAAPVDSSVPANNASQDDAVIDQELDDLRRRLNNL
notes: IM30 (Vipp1) of the cyanobacterium Synechocystis sp; PCC 6803, wild type, helices 1-7; the last residue is 267 (α4-7 = amino acids 147-267); Forms rings of variable size; also called Vipp1; full-length protein; source: heterologously expressed and purified (as in Fuhrmann et al., 2009a)
B1: binds [3].
